Data reported in the supplement of paper PMC6757056.
± gives the standard deviation of the averaged measurements.

B1: library; a variant is named by its letters at N, in order (parent)
chain: GCUGUCACCGAGAAACUGUGAAGUAUAUCUUAAACCUGGGCACUUAAAAGAUAUAUGGAGUUAGUAGUGCAACCUGCUCGGUCUGAUGAGUCCNNNNNNGGACGAAACAGC

Experiments:
cyclic di-GMP [1] = variants of: B1; experiment: FACS-Seq fitted mean relative fluorescence mCherry/BFP without ligand (log10 relative fluorescence); HEK293T; ligand: cyclic di-GMP (c-di-GMP-II aptamer); higher = higher reporter protein expression; settings: ligand present: no
Procedure, shortened: (§1)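 HEK293T libraries were made by lentiviral transduction with a ribozyme-switch mCherry reporter and an EF1α-BFP marker, enriched, and incubated with or without ligand for 48 h. Cells were sorted into 6 mCherry/BFP bins, and each bin's genomic DNA was PCR-amplified, barcoded and run on MiSeq. Fluorescence was derived by normal fitting of the bin counts. The fitted log10(mCherry/BFP) mean was scaled to five spiked-in control ribozymes.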

cyclic di-GMP [2] = variants of: B1; experiment: normalized RNA/DNA level without ligand (relative to sTRSVctl = 100) (log10 (% of sTRSVctl)); HEK293T; ligand: cyclic di-GMP (c-di-GMP-II aptamer); higher = less ribozyme self-cleavage, higher mRNA level; settings: reporter: mCherry (pCS4076), ligand present: no
Procedure, shortened: (§2)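 HEK293T cells were transfected with library plasmids carrying ribozyme switches linked to an mCherry reporter, or an eGFP reporter in some ligand experiments, at 4 µg per well of a 6-well plate, with any ligand added 1 h beforehand. After 72 h, total RNA was extracted with EDTA, reverse-transcribed, amplified, barcoded and sequenced. RNA level was defined as RNA reads over DNA reads, normalized to a spiked-in non-cleaving sequence or to the top-ranked sequences. That value was multiplied by 100 and converted to log10, the top set was 25 sequences, and only sequences with ≥100 DNA reads were retained.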

cyclic di-GMP [3] = variants of: B1; experiment: FACS-Seq fitted mean relative fluorescence mCherry/BFP with ligand (log10 relative fluorescence); HEK293T; ligand: cyclic di-GMP (c-di-GMP-II aptamer); ligand concentration (+) FACS-Seq: 1 mM; higher = higher reporter protein expression; settings: ligand present: yes
Procedure, shortened: as §1

cyclic di-GMP [4] = variants of: B1; experiment: normalized RNA/DNA level with ligand (relative to sTRSVctl = 100) (log10 (% of sTRSVctl)); HEK293T; ligand: cyclic di-GMP (c-di-GMP-II aptamer); ligand concentration (+) RNA-Seq: 1 mM; higher = less ribozyme self-cleavage, higher mRNA level; settings: reporter: mCherry (pCS4076), ligand present: yes
Procedure, shortened: as §2

| Variant | FACS-Seq fitted mean (log10) (cyclic di-GMP [1]) | normalized RNA/DNA level without ligand (log10) (cyclic di-GMP [2]) | FACS-Seq fitted mean (log10) (cyclic di-GMP [3]) | normalized RNA/DNA level with ligand (log10) (cyclic di-GMP [4]) |
| --- | --- | --- | --- | --- |
| GUAUUU | -0.574 ± 0.0067 | 1.686 ± 0.0056 | -0.186 ± 0.035 | 1.82 ± 0.085 |
| GUCGGA | -0.0744 ± 0.052 | 1.51 ± 0.073 | 0.242 ± 0.025 | 1.7 ± 0.071 |
| AUAGUA | 0.0378 ± 0.13 | 1.5 ± 0.034 | 0.3053 ± 0.00099 | 1.65 ± 0.046 |
| AUAGUU | -0.615 ± 0.079 | 1.539 ± 0.0099 | -0.438 ± 0.02 | 1.73 ± 0.089 |
| AUAAUU | -0.558 ± 0.032 | 1.55 ± 0.027 | -0.213 ± 0.038 | 1.72 ± 0.087 |
| AUAAUA | -0.503 ± 0.0074 | 1.58 ± 0.0077 | -0.158 ± 0.15 | 1.75 ± 0.092 |
| CUGCAA | -0.468 ± 0.049 | 1.36 ± 0.11 | -0.0644 ± 0.035 | 1.59 ± 0.097 |
| UUAUAU | -0.127 ± 0.066 | 1.68 ± 0.0031 | 0.0702 ± 0.1 | 1.8 ± 0.081 |
| AUAGAC | -0.109 ± 0.028 | 1.61 ± 0.05 | 0.0802 ± 0.041 | 1.76 ± 0.091 |
| AUAGAA | -0.406 ± 0.06 | 1.39 ± 0.077 | -0.217 ± 0.058 | 1.61 ± 0.093 |
| UUCGUG | -0.959 ± 0.031 | 1.71 ± 0.022 | -0.86 ± 0.094 | 1.86 ± 0.1 |
| CUACAC | -0.167 ± 0.016 | 1.699 ± 0.0052 | 0.0624 ± 0.12 | 1.83 ± 0.11 |
| CUACAA | -0.602 ± 0.069 | 1.48 ± 0.11 | -0.356 ± 0.025 | 1.68 ± 0.067 |
| GUCACU | -0.159 ± 0.13 | 1.708 ± 0.0022 | 0.131 ± 0.035 | 1.85 ± 0.08 |
| GUCACG | -0.35 ± 0.017 | 1.64 ± 0.028 | -0.131 ± 0.21 | 1.84 ± 0.085 |
| CUGAGU | -0.459 ± 0.047 | 1.7 ± 0.022 | -0.264 ± 0.00087 | 1.83 ± 0.12 |
| AUGAAA | -0.678 ± 0.011 | 1.4 ± 0.14 | -0.502 ± 0.026 | 1.64 ± 0.1 |
| AUGAAC | -0.0137 ± 0.15 | 1.649 ± 0.0059 | 0.334 ± 0.026 | 1.79 ± 0.1 |
